Laboratory results reported in article PMC5700061.
pKd: −log10 of the molar value. Values belong to the substance of their own block, whether it stands above or below them.

Legend:
[1] = molecular target: Furin-resistant mouse proBrain-Derived Neurotrophic Factor (proBDNF) (mouse) (UniProt P21237); test: SPR; MX96 (IBIS); NGF, proNGF and proBDNF amine-coupled to a P-COOH SensEye sensor, s-sortilin flowed over as analyte; 25 mM MES pH 5.0, 150 mM NaCl, 0.005% Tween 20, 25 °C; equilibrium binding, 1:1 Langmuir model
[2] = molecular target: Mouse Nerve Growth Factor (NGF) (mouse) (UniProt P01139); test: as above
[3] = molecular target: Mouse sortilin luminal segment (s-sortilin), wild type, native glycans (mouse); test: SEC-MALS; Superdex 200 10/300 GL, 10 µl of 10 mg mL^-1 injected, 0.5 ml min^-1; 25 mM MES pH 5.0, 150 mM NaCl
[4] = molecular target: Furin-resistant mouse proBrain-Derived Neurotrophic Factor (proBDNF) (mouse) (UniProt P21237); test: SPR; equilibrium binding, IBIS MX96; NGF, proNGF and proBDNF amine-coupled, s-sortilin as analyte; 25 mM HEPES pH 7.4, 150 mM NaCl, 0.005% Tween 20, 25 °C; 1:1 Langmuir model
[5] = molecular target: Furin-resistant mouse proBrain-Derived Neurotrophic Factor (proBDNF) (mouse) (UniProt P21237); test: SPR; equilibrium binding, IBIS MX96; NGF, proNGF and proBDNF amine-coupled, s-sortilin as analyte; 25 mM MES pH 5.0, 150 mM NaCl, 0.005% Tween 20, 25 °C; 1:1 Langmuir model

Chain of Mouse Nerve Growth Factor (NGF) (mouse) (P01139 122-241): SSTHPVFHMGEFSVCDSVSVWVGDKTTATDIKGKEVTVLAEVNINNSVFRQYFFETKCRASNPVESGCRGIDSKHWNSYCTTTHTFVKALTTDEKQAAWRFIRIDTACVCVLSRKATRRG

pKd [1]: 5.64
pKd [2]: 6.14
Substance: Mouse s-sortilin A464E, native glycans (domain or fragment)

stoichiometry N [3]: 2
Substance: Mouse sortilin luminal segment (s-sortilin), wild type, native glycans (domain or fragment)

pKd [4]: 6.40
fold reduction of binding at pH 5.0 against pH 7.4 [5]: 4 fold
Substance: s-sortilin A464E (dimerization interface mutant of the mouse sortilin luminal segment) (domain or fragment)
